Results on six molecules are retold here after US20230063965A1 (YEDA RESEARCH AND DEVELOPMENT, published 2023).

For test [1], the target named is T1, hFcγRII^F158 (so in the source); read as hFcγRIIIA F158) (human, UniProt P08637 17-208).
T1 construct: The head is printed 'hFcγRII^F158'; also called huFcγRIIIA
Briefly: SPR, immobilized FcγRs, soluble IgGs.

For test [2], the target named is T2, hFcγRIIB (human, UniProt P31994 43-217, limits assumed).
T2 construct: also called CD32B; huFcγRIIB
T2 sequence (looked up): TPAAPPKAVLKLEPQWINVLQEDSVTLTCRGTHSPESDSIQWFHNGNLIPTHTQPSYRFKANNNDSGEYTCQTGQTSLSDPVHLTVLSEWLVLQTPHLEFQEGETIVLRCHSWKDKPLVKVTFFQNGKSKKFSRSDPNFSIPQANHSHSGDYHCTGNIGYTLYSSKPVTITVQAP
Briefly: SPR, immobilized FcγRs, soluble IgGs.

The target of test [3] is T3, hFcγRIIA R131 (human, UniProt P12318 34-218, limits assumed).
T3 construct: R131 allotype as printed (131 is mature-protein numbering)
T3 sequence (looked up): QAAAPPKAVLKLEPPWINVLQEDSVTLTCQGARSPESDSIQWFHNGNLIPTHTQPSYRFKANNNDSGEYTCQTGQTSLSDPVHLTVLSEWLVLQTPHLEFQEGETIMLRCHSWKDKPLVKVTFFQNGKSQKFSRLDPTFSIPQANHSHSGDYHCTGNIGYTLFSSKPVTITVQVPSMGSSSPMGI
Briefly: SPR, immobilized FcγRs, soluble IgGs.

Test [4] deals with T4, human FcγRIIIA soluble ectodomain (ELISA) (human, UniProt P08637 17-208).
T4 construct: extracellular domain
T4 sequence (P08637 17-208): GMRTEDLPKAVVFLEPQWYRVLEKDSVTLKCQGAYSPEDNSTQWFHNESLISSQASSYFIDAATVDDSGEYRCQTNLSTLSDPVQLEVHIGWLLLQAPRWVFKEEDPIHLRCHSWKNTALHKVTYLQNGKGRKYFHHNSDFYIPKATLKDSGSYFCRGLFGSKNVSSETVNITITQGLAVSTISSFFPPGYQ
Briefly: FcγR binding ELISA, plate-bound human FcγRIIIA soluble ectodomain, serially diluted IgG, Δabsorbance 450 nm; panel FcgR3A. The protocol: (§1) ELISA plates (Nunc) were coated overnight at 4° C. with recombinant PD-L1 (1 μg/mL/well). All sequential steps were performed at room temperature in 2% BSA. After being washed, the plates were blocked for 1 hr with 1×PBS with 2% Bovine serum Albumin and were subsequently incubated for 1 hr with serially diluted IgGs. After washing, plates were incubated for 1 hr with HRP-conjugated anti-mouse IgG (Jackson ImmunoResearch). Detection was performed by TMB Soluble Reagent (ScyTek Laboratories) and reactions stopped with the addition of 0.18 M sulfuric acid. Absorbance at 450 nm was immediately recorded using a SpectraMax Plus spectrophotometer (Molecular Devices) and background absorbance from negative control samples was subtracted. […] After washing, plates were incubated for 1 hr with streptavidin-HRP (Jackson ImmunoResearch). (2) For FcγR binding ELISA, human FcγRs soluble ectodomains (2 μg/ml/well) were immobilized to the plate. After being washed, the plates were blocked for 40 minutes with 1×PBS with 10% Bovine serum Albumin and were subsequently incubated for 2 hours with serially diluted IgGs.
On the technique in general: In an ELISA, binding on a coated surface is turned into a signal by an enzyme label.

For test [5], the target named is T5, FcgR1 (human, UniProt P12314).
T5 construct: soluble ectodomain; also called human FcγRI soluble ectodomain (ELISA); FcγRI
T5 sequence (P12314 16-292 limits assumed): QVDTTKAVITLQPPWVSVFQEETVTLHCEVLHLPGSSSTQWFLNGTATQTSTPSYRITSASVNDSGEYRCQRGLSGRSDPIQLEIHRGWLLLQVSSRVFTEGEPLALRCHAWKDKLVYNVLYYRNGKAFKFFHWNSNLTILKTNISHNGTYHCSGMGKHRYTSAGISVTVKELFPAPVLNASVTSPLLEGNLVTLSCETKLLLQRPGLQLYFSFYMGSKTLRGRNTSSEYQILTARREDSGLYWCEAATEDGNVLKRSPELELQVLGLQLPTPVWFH
Briefly: FcγR binding ELISA, plate-bound human FcγRI soluble ectodomain, serially diluted IgG, Δabsorbance 450 nm; panel FcgR1. Here is the method:
as §1

Test [6] deals with T2, hFcγRIIB. Briefly: FcγR binding ELISA, plate-bound human FcγRIIB soluble ectodomain, serially diluted IgG, Δabsorbance 450 nm; panel Fcg2B. The protocol:
as §1

The target of test [7] is T6, human FcγRIIIB soluble ectodomain (ELISA) (human, UniProt O75015 17-200, limits assumed).
T6 construct: extracellular domain
T6 sequence (O75015 17-200 limits assumed): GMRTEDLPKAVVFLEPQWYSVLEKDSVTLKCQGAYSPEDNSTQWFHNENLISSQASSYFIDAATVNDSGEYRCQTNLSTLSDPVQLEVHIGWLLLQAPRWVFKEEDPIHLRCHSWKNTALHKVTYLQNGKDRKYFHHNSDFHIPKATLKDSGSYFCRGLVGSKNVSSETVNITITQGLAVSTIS
Briefly: FcγR binding ELISA, plate-bound human FcγRIIIB soluble ectodomain, serially diluted IgG, Δabsorbance 450 nm; panel Fcg3B. Here is the method:
as §1

T1 sequence (P08637 17-208 limits assumed): as the sequence (P08637 17-208) above

B1: Avelumab Afucosylated Fc variant (antibody, human IgG1, lambda)
heavy: not shown
light: QSALTQPASVSGSPGQSITISCTGTSSDVGGYNYVSWYQQHPGKAPKLMIYDVSNRPSGVSNRFSGSKSGNTASLTISGLQAEDEADYYCSSYTSSSTRVFGTGTKVTVLGQPKANPTVTLFPPSSEELQANKATLVCLISDFYPGAVTVAWKADGSPVKAGVETTKPSKQSNNKYAASSYLSLTPEQWKSHRSYSCQVTHEGSTVEKTVAPTECS
modifications: afucosylated Fc glycan (N297, EU); fucose content of about 28%
notes: also called non-fucosylated Fc glycan
For orientation: Kd means the equilibrium constant for the complex coming apart. Low readings indicate higher affinity, high ones lower affinity. By EC50 (read off the curve) is commonly meant the concentration needed to bring the measured effect to its halfway point. Take B1: the results for the “Fold (KD(IgG1)/KD(Fc variant))” value in test [1], in test [2] and in test [3] were 11.6 fold, 1.1 fold and 1 fold, respectively. Besides, the values for the Kd in test [1], in test [2] and in test [3] were 578 nM, 2800 nM and 1160 nM, respectively. Also, the “EC50 (read off the curve)” value in test [4] is around 2 µg/mL. Also, in test [5], the binding result is recorded as “binds”.

B2: Avelumab IgG1 (wild type human IgG1) (antibody)
heavy: not shown
light: B1 light
notes: Made recombinantly in Expi293 cells
On to B2, for which the “Fold (KD(IgG1)/KD(Fc variant))” value in test [1], in test [2] and in test [3] was 1 fold throughout. For the same molecule, the equilibrium dissociation constant (Kd) was found to be 6700 nM in test [1], 3010 nM in test [2] and 1160 nM in test [3]. The binding result in test [5] is recorded as “binds”.

B3: Avelumab N297A (FcγR-binding null IgG1) (antibody, name in EU numbering)
heavy: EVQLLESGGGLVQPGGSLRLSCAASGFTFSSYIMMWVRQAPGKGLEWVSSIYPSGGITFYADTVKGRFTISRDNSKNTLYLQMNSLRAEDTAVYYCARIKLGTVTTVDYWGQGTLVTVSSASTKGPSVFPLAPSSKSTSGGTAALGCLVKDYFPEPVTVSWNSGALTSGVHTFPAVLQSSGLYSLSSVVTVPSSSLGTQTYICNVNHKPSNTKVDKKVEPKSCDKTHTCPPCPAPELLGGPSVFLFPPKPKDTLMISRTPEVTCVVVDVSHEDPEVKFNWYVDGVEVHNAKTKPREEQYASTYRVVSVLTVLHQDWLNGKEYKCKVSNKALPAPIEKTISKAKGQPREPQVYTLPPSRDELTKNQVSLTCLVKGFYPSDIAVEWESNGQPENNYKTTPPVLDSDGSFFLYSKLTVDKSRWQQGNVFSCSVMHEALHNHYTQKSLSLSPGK
light: B1 light
notes: also called Fc-silent (N297A) variant
With B3, the binding result in test [6] was “no binding (tested: log 2 (100 µg/ml))”; in test [1], “no binding”; in test [3], “no binding”; in test [4], “no binding (tested: log 1.2 (about 16 µg/ml))”; in test [5], “binds”; in test [7], “no binding (tested: log 2 (100 µg/ml))”.

B4: Avelumab GASDALIE (G236A/S239D/A330L/I332E) (antibody, human IgG1, lambda)
heavy: EVQLLESGGGLVQPGGSLRLSCAASGFTFSSYIMMWVRQAPGKGLEWVSSIYPSGGITFYADTVKGRFTISRDNSKNTLYLQMNSLRAEDTAVYYCARIKLGTVTTVDYWGQGTLVTVSSASTKGPSVFPLAPSSKSTSGGTAALGCLVKDYFPEPVTVSWNSGALTSGVHTFPAVLQSSGLYSLSSVVTVPSSSLGTQTYICNVNHKPSNTKVDKKVEPKSCDKTHTCPPCPAPELLAGPDVFLFPPKPKDTLMISRTPEVTCVVVDVSHEDPEVKFNWYVDGVEVHNAKTKPREEQYNSTYRVVSVLTVLHQDWLNGKEYKCKVSNKALPLPEEKTISKAKGQPREPQVYTLPPSRDELTKNQVSLTCLVKGFYPSDIAVEWESNGQPENNYKTTPPVLDSDGSFFLYSKLTVDKSRWQQGNVFSCSVMHEALHNHYTQKSLSLSPGK
light: B1 light
notes: also called GASDLIE
B4: the “Fold (KD(IgG1)/KD(Fc variant))” value in test [1] was found to be 29.5 fold; in test [2], 14 fold; in test [3], 24.5 fold. Moreover, the dissociation constant Kd in test [1] worked out at 227 nM; in test [2] it was 230 nM; in test [3], 47 nM.

B5: Avelumab ALIE (A330L/I332E) (antibody, human IgG1, lambda)
heavy: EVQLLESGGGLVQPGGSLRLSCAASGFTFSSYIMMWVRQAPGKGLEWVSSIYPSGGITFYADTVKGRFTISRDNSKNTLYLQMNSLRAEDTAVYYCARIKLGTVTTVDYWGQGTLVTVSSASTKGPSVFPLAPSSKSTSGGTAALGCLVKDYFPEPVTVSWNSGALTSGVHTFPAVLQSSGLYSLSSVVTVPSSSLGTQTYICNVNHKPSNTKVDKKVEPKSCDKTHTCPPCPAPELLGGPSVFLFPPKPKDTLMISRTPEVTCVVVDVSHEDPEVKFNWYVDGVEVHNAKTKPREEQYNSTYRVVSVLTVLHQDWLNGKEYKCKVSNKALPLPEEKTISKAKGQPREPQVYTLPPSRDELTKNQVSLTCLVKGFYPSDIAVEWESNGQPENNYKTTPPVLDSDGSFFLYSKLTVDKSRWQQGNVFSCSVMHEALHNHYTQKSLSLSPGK
light: B1 light
As for B5, the “Fold (KD(IgG1)/KD(Fc variant))” value in test [1] came to 5.4 fold; in test [2], 1.1 fold; in test [3] it was 1.2 fold. Also, the Kd in test [2] came to 2800 nM; in test [3], 950 nM.

B6: Avelumab G236A (antibody, human IgG1, lambda)
heavy: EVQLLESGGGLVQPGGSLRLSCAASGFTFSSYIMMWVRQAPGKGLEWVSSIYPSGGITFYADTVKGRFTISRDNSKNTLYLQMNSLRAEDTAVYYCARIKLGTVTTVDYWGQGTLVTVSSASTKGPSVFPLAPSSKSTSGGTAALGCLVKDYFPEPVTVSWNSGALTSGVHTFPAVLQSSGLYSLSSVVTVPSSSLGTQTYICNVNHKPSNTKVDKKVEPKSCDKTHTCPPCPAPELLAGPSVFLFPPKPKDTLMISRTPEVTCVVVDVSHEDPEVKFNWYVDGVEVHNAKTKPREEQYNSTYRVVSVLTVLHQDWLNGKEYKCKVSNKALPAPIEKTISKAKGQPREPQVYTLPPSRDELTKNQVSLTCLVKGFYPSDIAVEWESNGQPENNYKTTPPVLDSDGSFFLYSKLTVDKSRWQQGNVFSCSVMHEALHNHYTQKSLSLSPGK
light: B1 light
For B6, the “Fold (KD(IgG1)/KD(Fc variant))” value in test [1] was 1.7 fold; in test [2], 0.7 fold; in test [3] it was 9.3 fold. In addition, the Kd worked out at 3900 nM in test [1], 4380 nM in test [2] and 120 nM in test [3].
